Measurements taken from a protein production outcome set (Wang et al. 2014).

Assay: label from the status in PepcDB records

Q: With “MKKLLRNLFGSGREEEKRSASDAMSGREQIVTNSEKSNLSTDPDHVNRQADTLKFDAIRAMNMGELVFATEALRKAMELRPEFETRYYLTEALLRRHLTEEALAQMNLLLEEVPMHTATLLNRAKLRLEQNDPSRALEDCGTGIESTSELEEQALFLYYGASAMKDMKNLKDALCLLKQAIEKNDAFIPARLLRARILIDLERYEEATQDLDWVAASDPEEEQVPMLRARLFMLEGKQQNAIQAYEELLSLDPFNEEGHCGIATLMIKEGRSAEAETFLREAIEEMPVQRNLILMLVEILENKGQTQEAAEWRAKLPEAEVESEAVNFNDLYKGNLY” as the sequence, how does the protein production read?
A: The protein production was “failed”.

Q: For “MKKMAAAESMEAEICINREIPPGLFPAVKGTDDLMAEGDIMSLLESIKKTEGGSGEVSVEDKMDEIFAKLEKSQVLLIQGDTGCGKTTKIPKYLLRKYGKIVCSQPRRIAAVSIAKKVAVDMKGKIGEDVGYSIRFDDMSSGRTRLKYVTDGVLLREIKNDKHLKKYDVVIIDEAHERSVNIDILLGYLKSILSERKDLRVVIMSATLNSEKFASFFRCQTVEIRHRMFPLEIFFLKKSDVADYVDEAMKTVVQIHRGEESGDILVFLTGRDEINSGREILMEVLGNDAEVCCIYSTLSPEEQEAVFRKTKKRKIVLATNIAETSITIEGVRYVVDSGRAKQMRYSASFGMDILEVVWISKAQAKQRAGRAGRTQAGKVFRMYSKEEYQKMDDNTTPEIFCCNLGKIVLELKSIGVDDIVNFNLIDKPDASNVKKALEMLYYLRAIGGDGKITSIGVKASTIPLDPELAVSLIVSSELGCLEDVSIIAAMLSVGNVWLDVPRYSQSYKAFLGARAAHFDKRGDHFLLLKIYRRWEKTGFKISHLKRWFLNVKTMLQTVKIKKQLCSMFRSPCKSDESGILPSLCAGYFMNVAKLVGESYVSIFNDTPCFIHYTSCMSRQNAKYILYHTLCRTGKEYARYCVGVTLEDLLKGANHMFAKVRKTEK”, which protein production is on record?
A: Its protein production is “failed”.

Q: With “MKKMLKVMLATLVLGWAVMAHAEDPHVEYTDAIGKGDLKVVKQYFNNPYKVDELFFAWSGLEIAANKGQLEMVKFFVENGADVNYKHPITKMTALHLAAYQGNKDVVKYLIDHGADVNAKLRGNVSILRALRDEGRTDMVDFLIAAGAKDDGCQEKKCY” as the sequence, how does the protein production read?
A: The protein production was “failed”.

Q: Which protein production does the source give for “MKKMLPESKVESIRKEGFLNRAVEAYRFFYPTVSNVSNFKALHDLGITENHDFIIQLTTPDLNVLTQNSDTPYCLGTGNTENGPVVIELPLGAIVGVADDINFKFITNMGLTGDEEGKGAKYLYLPPNYDGDIPEGYIVRKPSSFRFLICLRAMVHQASDYEKAFELLKTVKFYPLKEAKNNPTSTFHDFSHRKAISTPYYVEGKFDYWEVIKWALDNDETDPEYYQMYGLLKAIGLAPNKEFNPDSDTKALLIEAAEKADKMMFVNSFNTDDPAAIVWPGKNWEWAVYGENNDFYEKTYLNLPVRERWFYQATLETHMMFMHKVGFGSVYMLGVKDKEGNYLDGGKSYTLKVPTPVPTSIFWSVTVYEMDTRSEIVTEQFMPALNSIKDTFEADADGNTTLYFGPNPPEDESLPWIQTVPDANWFTYFRIYGPTEPAFDNSWQLYDFEEVK” here?
A: Its protein production is “failed”.

Q: For “MKKNHVVIGVIIVAALALLFTLSIQIARLILGDGPMVSSGEGVGYVEVKGPILESEEIVKQLSEMRKKTNVKAVVLRIESPGGVIGPSQEIYEAVKKLAKTKKVVVSMGSVAASGGYHIAIPAAVIYANPGTITGSIGVLMKLANVEGLMDKVGMKAFTLKSGKFKDAGSPVRALTDEDRALLQGVIDNLHTQFVKAVAEARKLPVEEVRRLADGRVYTGEQAVSLKLVDRLGTLEDAVEEAGRLAGIKGEPTLLMPPKKRKHLRDYLLEEASGFFREIVRREGGFSVNYELDPAVGNGGRLEHHHHHH”, which protein production is on record?
A: Its protein production is “not failed”.

Q: With “MKKNLLYLSCALMCMLGFLSSCKDDEKEIPPVVEDVVAQYTGDKVKVTLGGEAVSGDAQIDLVQQDDKSLTIKLLNIIPDVKEFSIPNAEFEATTRSAYISKLSGKVSNAVVGYDVTFEGVVDEGVLTASITATEIKGDSINAKKAGLTGKTFKGKMTINVSNIPTPIEMEQRVYTSVVSKDTSAIKLKINDFAFQGLKLGDISLDTVAVRHRGEQDGKPIYGFKTKSQEMTLEAVGKVLIDANGTIIGEKMELSLNVNAVTAGLTVGVDFSGNIVEESTDTKATITVTGDAVAEGVTVSGNTYTFKVWESTPDDQLVFIPKIEIPATAVLDSIIIYDNRNKKVSAVEPNTAIDFSQLKENYYVGYHVTPEDIRYPSKKMLKMVRIAELNPVYDMATWVADGDFEKPNGLTTSNLAAAFFPMFGIDVPTPVVKASDNAAEITTSRTVSATLPSTLVPGVTAGTMFLGEFKVDITNTLKSTHFGVPYRVKPVNFKITYKYTPGTTFYKTVVKNNANDTEVVPNEKDECSINAYLYEVDSYAETLDGTNINTSNKVIMKAVLEDGSAKADYVTLTIPFKETGNGSFDPTKKKYKLAIVCSSSKKGDQFMGADGSKLWVKYLEVTR” as the sequence, how does the protein production read?
A: Its protein production is “failed”.

Q: For “MKKPVYMKGGLHWLRNDGAIVAFNPETEKARLISIRFPKELCSKTLFTAADNNLILISATEEVFYVYAVENILTDPKWVVLKQIRNGVLDEKMLYSWYPEAYDGKCLMLREILKKDHYKQVLHGYDLRANKWEVIGSIPGWYTSALDFYQFTPSLSSVIGPDAKEEEEILACDHKKISSINSIIRMLDGISS”, which protein production is on record?
A: The protein production was “failed”.

Q: With “MKKRFCFVIITLLLIFILGSCNKVTSIRRLQELEEGVSNPNTEAELKDAIRKYEKRVDDIMIAEERIGIWYKILGSRYMDQKMYKKALKAFQSALEYYPENQNLFYQAGLAASLTAKNSLDFELTGTDIEKKRYFDLAVSAYKRALEIDPKHAKAVYALSVLYIFELNRPTEAIPILEKITEWEKKPIDHLFLLGAAYYMTGENEKAIAVYERIIEISSSAEKKAKAESNIREIRSSGGR” as the sequence, how does the protein production read?
A: The protein production was “failed”.

Q: With “MKKRKLLAVTLLSTILLNSAVPLVVADTSLRNNTSSTDQPTTADTATDAESETAKKDKKSKETASQHDTQKDHKPSHTHPTPPSNDTKQTDQASSEATDKPNKDKNDTKQPDSSDQSTSSPKDQSSQKESQNKDGRPTPSPDQQKDPTPDKTPEKSADKIPEKATEKTPEPNRDAPKPIQPPLAAAAPVFIPWRESDKDLSKLKPSSRSSAAYVRHWTGDSAYTHNLLSRRYGITAEQLDGFLNSLGIHYDKERLNGKRLLEWEKLTGLDVRAIVAIAMAESSLGTQGVAKEKGANMFGYGAFDFNPNNAKKYSDEVAIRHMVEDTIIANKNQTFERQDLKAKKWSLGQLDTLIDGGVYFTDTSGSGQRRADIMTKLDQWIDDHGSTPEIPEHLKITSGTQFSEVPVGYKRSQPQNVLTYKSETYSFGQCTWYAYNRVKELGYQVDRYMGNGGDWQRKPGFVTTHKPKVGYVVSFAPGQAGADATYGHVAVVEQIKEDGSILISESNVMGLGTISYRTFTAEQASLLTYVVGDKLPRP” as the sequence, how does the protein production read?
A: Its protein production is “failed”.

Q: With “MKKRLLKSFSFSYNSQDENRRLLERLMQYKSKDADKLNEENESIIRKRSAKLKRDLEDAVREPSSSSNAASSPGAASLQRNSSPAQFVGGLIGDEDFDEAAINGAMEAIGLDDNEYISARFTAGEIAENSRASIDTLKATGYLGQANPTKILMKFEAHENESHAVRWSPVERMVATGGADRKVKLWDIGKNSTEPRAVLSGSSAGINSVDFDSTGAYILGTSNDYGARVWTVMDNRLRHTLTGHSGKVMAAKYVQEPIKVVTGSHDRTLKIWDLRSIACIETKFAGSSCNDLVTTDSLGSTIISGHYDKKIRFWDIRTEKQADDVLMPAKITSLDLSKDCNYLICSVRDDTIKLLDLRKNQVISTFTNEHFKISCDFARASFNSSGLKIACGSADGAIYIWNVNGFLEATLKGHSTAVNAVSWSPNNNMLASVGKNKRCTIYSES” as the sequence, how does the protein production read?
A: The protein production was “failed”.

Q: Which protein production does the source give for “MKKRLSLDRRFLPYIKKAGGVLVKKQMGAYVSLAAAMAIVGSSVVVGKLMVERIPVFLSSGLRFLIASVVLLMLLFCIEKGFPALTKKDVFVLLVQSFTGVFLFSICLLYGVQYTTGTESGILTSTTPMLIGILSFFLLREKIEKKTLIGILLAVCGVMAINLFGAGSQDGTPHALFGNMLIIAAVIGEALFTLMAKLLSPHISALAISTFVSLFGFLFFLPFALFEASSFDYSVPTVLDWSYVLYYALFVTVLAFYLWYSGVTKVPAGVSGIFTSVLPVSAVILSGVILKEPFEFVHFIGIACVIGGIFVTVIKKKQPDAYPAAEEKTL” here?
A: Its protein production is “failed”.

Q: With “MKKSLCLSFFLTFSNPLQALVIELLEEIKTSPHKGTFKAKVLDSKKPRQVLGVYNISPHKKLTLTITHISTAIVYQPLDEKLSLETTLNPNRPTIPRNTQIVFSSKELKESHPHQMPSLNAPMQKPQNKPHSSQQPSQNFSYPEPKLGSKNSKNSLLQPLAIPSKISPTNETQTPTNDTKPPLKHSSEDQESNLFITPPTEKTLPNNTSNADISENNESNENKDNVEKQAIRDANIKEFACGKWVYDDENLQAYRPSILKRVDEDKQTATDITPCDYSTAENKSGKIITPYTKISVHKTEPLEEPQTFEAKNNFAILQARSSTEKCKRARARKDGTTRQCYLIEEPLKQAWESEYEITTQLVKAIYERPKQDDQVEPTFYETSELAYSSTRKSEITHNELNLNEKFMEFVEVYEGHYLNDIIKESSEYKEWVKNHVRFKEGVCMALEIEEQPRAKSTPLSIENSRVVCVKKGNYLFNEV” as the sequence, how does the protein production read?
A: The protein production was “failed”.

Q: With “MKKSLDEHAERFSDHADAYDEDQDSAAYRACVNFVVDHAAPESDDVVLDLGTGTGAIAFALASDAAEIIGRDISDGMLEKAREKADGRGVENVSFGDGRFRAPNVDRPVDIVTSNFAMHHLGDDEKREAIDTIADLGPRRIVLGDVMLFGDDDPDAPFYSPEVDDPATVGVLADAFTDAGYALTAVEMVTEQAGVLVAERVKSDLEHHHHHH” as the sequence, how does the protein production read?
A: Its protein production is “not failed”.

Q: Which protein production does the source give for “MKKSLVVCALSAAVLLSGCETVNTTSGGVVGVDRKQSMFSMVSSAEVNQSYAQSYQQTLGEASSQGVLDKTSANAKRLQVIANRLIAQAPTFRPDCAQWKWEVNLIKSDELNANCGPGGKIIFYSGLIEKLKLTDDEIAAVMGHEIAHALREHGREAMSKQYAVGAGKQIATLFGVPQETVALGDNGVNLLMTLPNSRENENEADLIGLELAARAGYNPNAAISLWNKMGQAAGGSAPPEFMSTHPASTSRIASLQAAIPKVMPLYQAAKKSLEHHHHHH” here?
A: The protein production was “failed”.

Q: Which protein production does the source give for “MKKTLILGATPETNRYAYLAAERLKSHGHEFIPVGRKKGEVLGKTIINERPVIEGVDTVTLYINPQNQLSEYNYILSLKPKRVIFNPGTENEELEEILSENGIEPVIGCTLVMLSAGT” here?
A: The protein production was “failed”.

Q: For “MKKTTLALSALALSLGLALSPLSATAAETSSATTAQQMPSLAPMLEKVMPSVVSINVEGSTTVNTPRMPRNFQQFFGDDSPFCQEGSPFQSSPFCQGGQGGNGGGQQQKFMALGSGVIIDADKGYVVTNNHVVDNATVIKVQLSDGRKFDAKMVGKDPRSDIALIQIQNPKNLTAIKMADSDALRVGDYTVAIGNPFGLGETVTSGIVSALGRSGLNAENYENFIQTDAAINRGNSGGALVNLNGELIGINTAILAPDGGNIGIGFAIPSNMVKNLTSQMVEYGQVKRGELGIMGTELNSELAKAMKVDAQRGAFVSQVLPNSSAAKAGIKAGDVITSLNGKPISSFAALRAQVGTMPVGSKLTLGLLRDGKQVNVNLELQQSSQNQVDSSSIFNGIEGAEMSNKGKDQGVVVNNVKTGTPAAQIGLKKGDVIIGANQQAVKNIAELRKVLDSKPSVLALNIQRGDSTIYLLMQ”, which protein production is on record?
A: Its protein production is “failed”.

Q: With “MKKVIAGLAAASVVGVAVPGMDSAQAQVSNEALKEINGQTQTQTTVTETKTVETKSDLKYTVTADVLNVRSGAGTGHSVISKVKQGQVLQVIGQENGWFKVTVNGQTGYVSGDFVTTGGKTGTTVQQGTGTYTVNVSSLNVRTGPSTSHTVLGSVNKGKTVQVVSEVQDWFKINFNGGTGYVSKDFVTKGGSAVSNQTQQPTTNNNTTTVQTGGSYVVNTGALKVRTGPATYNAVIGGVTNGTVLNVTGAENGWYKINHNGRTGYVSADFVKFVKGGVNNVTNNVQQPVKDVQKPTTGGNTSSIAGFARSLNGSPYRTAGTTPAGFDCSGFIHYVLNQTGHKGARQTVAGYWSSKTKTSNPQPGDLVYFQNTYKSGPSHMGVYLGNGQFISAETDATGVRISSVSNSYWSKHLLGYTKAYLEHHHHHH” as the sequence, how does the protein production read?
A: Its protein production is “failed”.
